The RNAGym collection of RNA variant scans (doi:10.7554/elife.80360)

B1: Twister Ribozyme (parent)
chain: AACACUGCCAAUGCCGGUCCCAAGCCCGGAUAAAAGUGGAGGGGGCGG

Variants of: B1
Test: self-cleavage, relative activity (ratio to wild type); higher = more cleavage; co-transcriptional

Question: For CCCACUGCCAAUGCCGGUCCCAAGCCCGGAUAAAAGUGGAGGGGGCGG [A1C A2C], which self-cleavage is on record?
Answer: 1.36

Question: Which self-cleavage does the source give for CGCACUGCCAAUGCCGGUCCCAAGCCCGGAUAAAAGUGGAGGGGGCGG [A1C A2G] here?
Answer: 1.25

Question: For CUCACUGCCAAUGCCGGUCCCAAGCCCGGAUAAAAGUGGAGGGGGCGG [A1C A2U], which self-cleavage is on record?
Answer: 0.346

Question: For CACUCUGCCAAUGCCGGUCCCAAGCCCGGAUAAAAGUGGAGGGGGCGG [A1C A4U], which self-cleavage is on record?
Answer: 0.116

Question: Which self-cleavage does the source give for CACACUGCCGAUGCCGGUCCCAAGCCCGGAUAAAAGUGGAGGGGGCGG [A1C A10G] here?
Answer: 0.133

Question: With CACACUGCCUAUGCCGGUCCCAAGCCCGGAUAAAAGUGGAGGGGGCGG [A1C A10U] as the variant, how does the self-cleavage read?
Answer: 0.153

Question: For CACACUGCCAUUGCCGGUCCCAAGCCCGGAUAAAAGUGGAGGGGGCGG [A1C A11U], which self-cleavage is on record?
Answer: 0.176

Question: With CACACUGCCAAUGCCGGUCCCCAGCCCGGAUAAAAGUGGAGGGGGCGG [A1C A22C] as the variant, how does the self-cleavage read?
Answer: 0.134

Question: Which self-cleavage does the source give for CACACUGCCAAUGCCGGUCCCACGCCCGGAUAAAAGUGGAGGGGGCGG [A1C A23C] here?
Answer: 0.12

Question: With CACACUGCCAAUGCCGGUCCCAGGCCCGGAUAAAAGUGGAGGGGGCGG [A1C A23G] as the variant, how does the self-cleavage read?
Answer: 0.145

Question: For CACACUGCCAAUGCCGGUCCCAUGCCCGGAUAAAAGUGGAGGGGGCGG [A1C A23U], which self-cleavage is on record?
Answer: 0.184

Question: Which self-cleavage does the source give for CACACUGCCAAUGCCGGUCCCAAGCCCGGCUAAAAGUGGAGGGGGCGG [A1C A30C] here?
Answer: 0.199

Question: For CACACUGCCAAUGCCGGUCCCAAGCCCGGUUAAAAGUGGAGGGGGCGG [A1C A30U], which self-cleavage is on record?
Answer: 0.177

Question: For CACACUGCCAAUGCCGGUCCCAAGCCCGGAUACAAGUGGAGGGGGCGG [A1C A33C], which self-cleavage is on record?
Answer: 0.169

Question: For CACACUGCCAAUGCCGGUCCCAAGCCCGGAUAGAAGUGGAGGGGGCGG [A1C A33G], which self-cleavage is on record?
Answer: 0.116

Question: Which self-cleavage does the source give for CACACUGCCAAUGCCGGUCCCAAGCCCGGAUAAGAGUGGAGGGGGCGG [A1C A34G] here?
Answer: 0.19

Question: For CACACUGCCAAUGCCGGUCCCAAGCCCGGAUAAUAGUGGAGGGGGCGG [A1C A34U], which self-cleavage is on record?
Answer: 0.176

Question: With CACACUGCCAAUGCCGGUCCCAAGCCCGGAUAAAAGUGGCGGGGGCGG [A1C A40C] as the variant, how does the self-cleavage read?
Answer: 0.186

Question: For CACACUGCCAAUGCCGGUCCCAAGCCCGGAUAAAAGUGGGGGGGGCGG [A1C A40G], which self-cleavage is on record?
Answer: 0.117

Question: For CAAACUGCCAAUGCCGGUCCCAAGCCCGGAUAAAAGUGGAGGGGGCGG [A1C C3A], which self-cleavage is on record?
Answer: 0.193

Question: For CAUACUGCCAAUGCCGGUCCCAAGCCCGGAUAAAAGUGGAGGGGGCGG [A1C C3U], which self-cleavage is on record?
Answer: 0.208

Question: With CACAUUGCCAAUGCCGGUCCCAAGCCCGGAUAAAAGUGGAGGGGGCGG [A1C C5U] as the variant, how does the self-cleavage read?
Answer: 0.277

Question: For CACACUGGCAAUGCCGGUCCCAAGCCCGGAUAAAAGUGGAGGGGGCGG [A1C C8G], which self-cleavage is on record?
Answer: 0.187

Question: With CACACUGCAAAUGCCGGUCCCAAGCCCGGAUAAAAGUGGAGGGGGCGG [A1C C9A] as the variant, how does the self-cleavage read?
Answer: 0.221

Question: For CACACUGCUAAUGCCGGUCCCAAGCCCGGAUAAAAGUGGAGGGGGCGG [A1C C9U], which self-cleavage is on record?
Answer: 0.174

Question: Which self-cleavage does the source give for CACACUGCCAAUGACGGUCCCAAGCCCGGAUAAAAGUGGAGGGGGCGG [A1C C14A] here?
Answer: 0.222

Question: Which self-cleavage does the source give for CACACUGCCAAUGUCGGUCCCAAGCCCGGAUAAAAGUGGAGGGGGCGG [A1C C14U] here?
Answer: 0.19

Question: Which self-cleavage does the source give for CACACUGCCAAUGCGGGUCCCAAGCCCGGAUAAAAGUGGAGGGGGCGG [A1C C15G] here?
Answer: 0.187

Question: Which self-cleavage does the source give for CACACUGCCAAUGCCGGUACCAAGCCCGGAUAAAAGUGGAGGGGGCGG [A1C C19A] here?
Answer: 0.123

Question: For CACACUGCCAAUGCCGGUUCCAAGCCCGGAUAAAAGUGGAGGGGGCGG [A1C C19U], which self-cleavage is on record?
Answer: 0.205

Question: With CACACUGCCAAUGCCGGUCACAAGCCCGGAUAAAAGUGGAGGGGGCGG [A1C C20A] as the variant, how does the self-cleavage read?
Answer: 0.104

Question: Which self-cleavage does the source give for CACACUGCCAAUGCCGGUCCAAAGCCCGGAUAAAAGUGGAGGGGGCGG [A1C C21A] here?
Answer: 0.154

Question: For CACACUGCCAAUGCCGGUCCGAAGCCCGGAUAAAAGUGGAGGGGGCGG [A1C C21G], which self-cleavage is on record?
Answer: 0.0972

Question: Which self-cleavage does the source give for CACACUGCCAAUGCCGGUCCUAAGCCCGGAUAAAAGUGGAGGGGGCGG [A1C C21U] here?
Answer: 0.125

Question: Which self-cleavage does the source give for CACACUGCCAAUGCCGGUCCCAAGACCGGAUAAAAGUGGAGGGGGCGG [A1C C25A] here?
Answer: 0.148

Question: Which self-cleavage does the source give for CACACUGCCAAUGCCGGUCCCAAGCACGGAUAAAAGUGGAGGGGGCGG [A1C C26A] here?
Answer: 0.171

Question: For CACACUGCCAAUGCCGGUCCCAAGCGCGGAUAAAAGUGGAGGGGGCGG [A1C C26G], which self-cleavage is on record?
Answer: 0.171

Question: With CACACUGCCAAUGCCGGUCCCAAGCUCGGAUAAAAGUGGAGGGGGCGG [A1C C26U] as the variant, how does the self-cleavage read?
Answer: 0.133

Question: Which self-cleavage does the source give for CACACUGCCAAUGCCGGUCCCAAGCCGGGAUAAAAGUGGAGGGGGCGG [A1C C27G] here?
Answer: 0.121

Question: For CACACUGCCAAUGCCGGUCCCAAGCCUGGAUAAAAGUGGAGGGGGCGG [A1C C27U], which self-cleavage is on record?
Answer: 0.138

Question: With CACACUGCCAAUGCCGGUCCCAAGCCCGGAUAAAAGUGGAGGGGGAGG [A1C C46A] as the variant, how does the self-cleavage read?
Answer: 0.148

Question: For CACACUUCCAAUGCCGGUCCCAAGCCCGGAUAAAAGUGGAGGGGGCGG [A1C G7U], which self-cleavage is on record?
Answer: 0.149

Question: For CACACUGCCAAUCCCGGUCCCAAGCCCGGAUAAAAGUGGAGGGGGCGG [A1C G13C], which self-cleavage is on record?
Answer: 0.116

Question: With CACACUGCCAAUUCCGGUCCCAAGCCCGGAUAAAAGUGGAGGGGGCGG [A1C G13U] as the variant, how does the self-cleavage read?
Answer: 0.207

Question: Which self-cleavage does the source give for CACACUGCCAAUGCCCGUCCCAAGCCCGGAUAAAAGUGGAGGGGGCGG [A1C G16C] here?
Answer: 0.192

Question: With CACACUGCCAAUGCCUGUCCCAAGCCCGGAUAAAAGUGGAGGGGGCGG [A1C G16U] as the variant, how does the self-cleavage read?
Answer: 0.189

Question: With CACACUGCCAAUGCCGCUCCCAAGCCCGGAUAAAAGUGGAGGGGGCGG [A1C G17C] as the variant, how does the self-cleavage read?
Answer: 0.145

Question: Which self-cleavage does the source give for CACACUGCCAAUGCCGGUCCCAAACCCGGAUAAAAGUGGAGGGGGCGG [A1C G24A] here?
Answer: 0.161

Question: Which self-cleavage does the source give for CACACUGCCAAUGCCGGUCCCAAUCCCGGAUAAAAGUGGAGGGGGCGG [A1C G24U] here?
Answer: 0.111

Question: Which self-cleavage does the source give for CACACUGCCAAUGCCGGUCCCAAGCCCGGAUAAAAAUGGAGGGGGCGG [A1C G36A] here?
Answer: 0.203

Question: Which self-cleavage does the source give for CACACUGCCAAUGCCGGUCCCAAGCCCGGAUAAAAUUGGAGGGGGCGG [A1C G36U] here?
Answer: 0.173

Question: Which self-cleavage does the source give for CACACUGCCAAUGCCGGUCCCAAGCCCGGAUAAAAGUUGAGGGGGCGG [A1C G38U] here?
Answer: 0.22

Question: Which self-cleavage does the source give for CACACUGCCAAUGCCGGUCCCAAGCCCGGAUAAAAGUGAAGGGGGCGG [A1C G39A] here?
Answer: 0.162

Question: With CACACUGCCAAUGCCGGUCCCAAGCCCGGAUAAAAGUGCAGGGGGCGG [A1C G39C] as the variant, how does the self-cleavage read?
Answer: 0.145
